From publication PMC9399999 (Nature Communications, 2022)

Target: Omicron RBD (SARS-CoV-2 Omicron BA.1 (B.1.1.529), S371L | S373P | S375F | K417N | G446S | S477N | E484A | Q493R | G496S | Q498R | …)
Test: SPR
Conditions: both partners purified

B1: S304 antibody (IgG1) (antibody, V domains shown)
VH: EVQLVESGGGLVQPGGSLRLSCAASGFTFSSYDMHWVRQTTGKGLEWVSTIGTAGDTYYPDSVKGRFTISREDAKNSLYLQMNSLRAGDTAVYYCARGDSSGYYYYFDYWGQGTLLTVSS
VL: DIQMTQSPSSLSAAVGDRVTITCRASQSIGSYLNWYQQKPGKAPKLLIYAASSLQSGVPSRFSGSGSGTDFTLTISSLQPEDFAIYYCQQSYVSPTYTFGPGTKVDIK
notes: IgG1
B1 was tested, and the Kd was 1.01 nM.
